Assay: protease stability score; higher = more stable; yeast display proteolysis, trypsin and chymotrypsin;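 note: relative to predicted unfolded state with 0 unfolded-like and 1 meaning tenfold more protease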

| Sequence | protease stability score |
| --- | --- |
| DEEEKAHEHMLRVLLHLERTGNEKALTEMADPNVRIDWNGKEDHGMEHLLRHLREIRIKNFELTDERHQGDKIELRGRLHGFIGDKHIILEVELVWRKVNGRWQLTSMHIK | 1.45 |
| SEHEEYNRELSELFWHWFQTGDEEMMNKNVDPDARMIVGEKTHHGWEEFVKLLRETLKRLGADHIILRRMNVQGNKSHIDGEIRINGVTIKTELDLVVVDGRISSLRLSFH | 1.05 |
| SEEDHHADEFRRIMYEIFETGDEKKFEDLFDPNVRWEQGDKHTHGMETATRDMLDLERRLGVDHIKYKDIRFELVDGRMIVYIIGTIYINGRPRHLHIEIIVSKINGRWFVENVRMKVE | 2.14 |
| DDEEEEAKEMSEHTLQWFFTGDEEKLYKYIDPDVRVRVLIDGRELVYHGREVFLEFLKRQIEELGIDHVHLRRRHVIDGVLEVHGTINVDGREIELIIFADKYNGRWRLKLIEINVR | 1.69 |
| ETEEQYAEELARLYIEIWETGDEETLHKLADPDVRNDVDGKQLHGRESMIEFWRKLGISNVHFILHRLHVKTQGDFIDIHIDGQLDINGKVTRVEHRLHVEKYNGRWLLKEIYIKRD | 1.72 |
| HEDERDAEEMLRLIEEAVYTGDEDLTKYLMDPNVRIHVGDKEFHGRDFLIMRLLEIRHHRFRLELHDIRIQGNKVILDVRWRLDGEINGQRFDDTWDVIIIAEKVNGQWRVQTLIIR | 2.59 |
| DERKTISHMIEEIWHRIIRTGDEEAFIKYFDPHARIHVDGKEIHGREKVLEFLIEIFRHLRVEDYTVHSYNTQGDKIHIDTRMDGEVDGRREVNQTRIIATKINGQWILTEVHLS | 0.36 |
| SEEEETLEELTRRLLHTWVTGDEQTLKDLADPDVRLIFNGQTYHGREQAERIIKELLDKLGVDRVHSEPRRFNIINGRIRMHVRIHYGDKEYIVHIIATKIDGRWTIKNVIFD | 1.24 |
| DDMERHARKALRVLIESLMTGDEDDIYRMLDPHVRYIFDGVDFHGRERTKETLERLSREFGLSRVHTELKDSKVYDGRLELHLEVNVDGRRRTVIVHVVKIDGKWYVEELRVQ | 1.26 |
| SEEEREDEEMFRKLWEAYKTGDEKTLSELVDPNARLRFENREFVGRESIKEFYRRIREKFKGIRIEDVHLRDRKEQGEFIHIDIEINRFVGDKYENVKVEIVLLKFDGRWIIHEIRIK | 2.69 |
| SEEKKESDKFFEEWVRSAQTGDEDRVREMLDPNARVEIGDKTYVGRELFLRIMVEIRIKDIILKDIRIQGDKLRNDGELLITVDGKEIRVETHIIAEKVDGRWVLSRFVWH | 1.35 |
| DERDEEAHRMTETFYELQRTGDEESTHHLADPHVKFEYLIGDKYFEIHGWDRVLEFWLRYKGVREEIDHRRVRVINGKIHIELIVKIRIGDKTHVHRIELNIEKVDGRWILREVRVEVK | 1 |
| SEDEEYIRELMKLIAQITQTGDEELFRRLVDPHTRLVQGDKQYHGWHAFRVFLEEMRIKSVRVEVRRIEIQGEYVHVDTHWQLHVHYNGRDIDLHIDVRNIVHKVNGRWIIRHIHVE | 0.986 |
| DDIEHDVKFFMERWVEAINTGDWKLLKKLVDPDAKFLIGDKELHGRELYVRHVLELRYRTEMIDNKIEVYDGRVHADMQVHSTLHIDGRNVDIHTHTRVVTRKVDGQWRLKSMEIL | 0.993 |
| DEWEKLYEIALEIFLEVFKTGNEEMFLKQADPHVRLDVGDKHYHGREHVVKFLIDELKRVKNLKVSSEHESFVGDYAHMHIDLDIDGRRVDVEIVSLKVDGKWVLREVRLH | 1.34 |
| SEDEEYVEHMIRLVIRSLWTGDEHLLHRLIDPHARAEVNGQEFHGREEVLDILMRIRDELGVDHIELKDFELQGDKLILYSQNNVGDKHFHIIYELTKINGRWRIHRVFIELR | 1.7 |
| DHEKENIERSSRIMLRLYETGDEDELRKLADPHARSEVGEFEYHGREEVFRWLNLLIRELGAKHITIRDIKYVGNKLTLHMISHVDGRELNLEIWAIKIDGQWLLTTVHHK | 0.69 |
| SEEEERSERSLKHLLKTELTGNEEEFWRLADPNAKIEVIIDGVRISDHGREAIIRLWRFMGFDHLIFRHIHVHIQGDKMDVHIQGESRIGDKEMRTTIFLHVIKINGRWINHTLIIEQK | 1.24 |

| Sequence | protease stability score |
| --- | --- |
| SEDEHRAREVVHIFNEAIDTGDFQSLMDMMDPNVRLIFENHHTIGREEALKVINRFDHVRNHHVRWRHVHHVNGRIIDHTEVDIVIHINGQIIRETTERDITIEKVNGRWLIHQIEIR | 1.14 |
| DEEDEILERNFRKMLEDWKTGDEEMYSKLIDPHAKVDYNGREFVGREYAVEVWHKMGVDHIILRRSDVQGDKIKLDFESRQGDKSSNLKMESEKVNGVWLLHSVRYE | 1.11 |
| THEQKLSHEITHIFWEILKTGDEHEMRRLADPNVQLEINGVERHGMHVLEHWLVHLGIDHLHVTDHRVQGEYSYWDTTLRVGDKERTIHLEVLAFNGRVKAFRLHVR | 1.22 |
| DHDDEMLEHFMNLWLHAVATGDEELLSNLLDPNVREIINGKTIHGREEFLKLYHELARRIDHIHIRVRWYDMQGEFLISKTEIEFRFNGVNLKFETKMIVLKINGKWILHSIRFE | 1.26 |
| DESEKLVERLTEDFRKAFETGDEKRLYNLMDPNVRLDINGVEIIGRELISKDLAHDLRRFKNVKMEFRLREIRVIGNFAHIDGRDIINVDGVEKYHESNYIVHKIDGRWHIKEIIIH | 1.52 |
| DEHEEISRRLAEFENEWINTGDEESFARNADPDVRIHVGEFHSHGREEMIRILKEFFRWLGVKHFRPTHIEIQGEKVIIYLEWHFDGRTHRIQIISVVVDGRRKSFQVHKL | 0.185 |
| SHNEEQSEREAKLEIEAYLTGDFDTLHRLADPNVRNNIEYGDKEIRLHGREEWVHQFYKLVEEYKGVKIHLQHLEYQGDKVILRIEIRVNGRERVLEIQIHVINGRSKEVNVETHVH | 1.18 |
| DEDERMIDEYLKKLVKSLITGDEETFTRLVDPHARHDFNGVEYHGWLWLHMVRKRADHFEVRIKNSEVQGDKLRLDFELIFRQGDKTITLKIQVIITKVDGRWIITSIDHD | 1.79 |
| SEDEKISEEALRRWVHHNRTGNEQDYVRMADPDTKIEIGDKEFHGREEFVKLARDYGFKHYHLKDNDVIGDKIRIDGIVEFNGQRWEMILYFVKYDGRWSIKSIHIK | 1.45 |
| SELEEEAKELIEEWLHSFSTGDEKKLYELADPDDRLLFNGVEFVGREEMLKNFRDLYRKWGVTRVEADVKRIHVFNGVAHSDTVSHYNGVRVKTHLVIEKINGRWRVSSLHIH | 1.42 |
| SEREHEVQESLEILIKLWHTGDFRAISEYADPNVRSDVNGKEFHGRENVEEALERSMKDLGVKVVHSEHIEHLEIYGNKVIVHVRIDGEVDGKRFHSHFIMYTTKVDGQWRVHEIRVH | 1.03 |
| SEDEKDAEKMSERFLHMFITGNEELFRDLADPHTRLKVNGVHNHGREHVEILNKEFLTRLGVNYYEEHDVRYRVIDGVVFIDIVGHMNIDGQETEVTLHWRVLKVNGRWRITEVDIRRH | 1.64 |
| DKEDEEAKRLLEIFITHHLTGDEEHYQTLMDPHARLDFDGRHNVGREKITEFLRRFGADHVHIKHIEVELYNGKLYVRIEVELRIGDKTMDMIWVLQLRKVDGRWHIRRETWILL | 0.703 |
| DEEEEIMRKIIEDLRHNTETGDEELMQDLMDPHARIDIDGQKLHGREYVRFLHDEFKGATWIWREVRLQGDKLDVHVEVRFDGRTLHVDIHYVIVNGRTKEIRVHWD | 1.28 |
| SDEDEISKHWVELLVEHIKTGDEDFLFKMFDPNVRVIIGDKIMHGRETLLDLIEKELKEAGITRFSMNLHHVDTQGDKAHSNMILDVNGVYRNVRVHFEKIDGKWHMHTWEER | 1.99 |
| HEDEHKWERAFRIWIHALITGDEETTNELMDPNTRLNFNGVDFIGREDMIELIRHIRIHREHITHVEIRTFNGVLHVHMHVRRDGNINGQRRNTDVEIHIVIFKVNGRWVLHSTTIVVN | 2.23 |
| DEEERIAEEMISDWIHVMRTGNEELLKDMADPHVKVYIDGRDFHGMEFLVREYRQYDHNDSELRHFTVQGNYVFSEQMLKLTVNGQTITWEVHYKSLKVDGRWIVTLILLK | 1.32 |
| SEDQEIAVKLLHEMMEALRTGDEDYLRRLFDPNMRFNQGDKTHHGMDWVHSFLRRYDYFEVRHVRVHHVEVQGEKIIIDGRLEGSIRVDGVLQENEISVIFIIIKINGKWFVQTIRFN | 1.21 |
